As a reminder, the Kd is the constant that tells how readily two partners part at equilibrium. Low readings indicate higher affinity, high ones lower affinity.

Data on four molecules can be found in US20180155451A1 (published 2018).

Experiment [1] deals with T1, FcgRIIb extracellular domain with C-terminal His tag (human, UniProt P31994 43-217).
T1 construct: extracellular domain; also called FcγRIIb; not shown: His tag attached to the C terminus
T1 sequence (looked up): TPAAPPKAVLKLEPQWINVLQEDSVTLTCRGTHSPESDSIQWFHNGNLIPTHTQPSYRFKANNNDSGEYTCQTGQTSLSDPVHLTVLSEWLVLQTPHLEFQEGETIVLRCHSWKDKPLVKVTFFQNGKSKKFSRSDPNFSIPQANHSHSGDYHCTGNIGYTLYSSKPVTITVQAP
In words: SPR (Biacore T100), antibody captured on antigen peptide chip, FcγR extracellular domain as analyte, kinetic analysis. As to the method: (§1) The prepared antibodies were assayed as to the KDs for FcγRIIIa and FcγRIIb according to the method described in Reference Example 2.
(§2) Analysis of interaction between objective antibody and the FcγR was carried out using Biacore T100 (GE Healthcare). HBS-EP+ (GE Healthcare) was used as the running buffer, and the measurement temperature was set to 25° C. Chips produced by immobilizing the antigen peptide by the amine coupling method to a Series S Sencor Chip CM5 (GE Healthcare), or alternatively, chips produced by allowing preliminarily biotinylated antigen peptides to interact with and immobilize onto a Series S Sensor Chip SA (certified) (GE Healthcare) were used. Antibodies of interest were captured onto an antigen peptide-immobilized chip, and allowed to interact to each FcγR diluted with running buffer. To regenerate and repeatedly use the chip, the antibodies captured on the chip were washed off by reacting 10 mM glycine-HCl, pH 1.5.
(§3) The FcγR-binding activity of each antibody was assessed primarily using as an indicator the FcγR-binding activity and dissociation constant for FcγR.
(In general: Surface plasmon resonance follows binding to a sensor surface in real time, without labels.)

In experiment [2] the target is T2, FcgRIIIa F extracellular domain with C-terminal His tag (human, UniProt P08637 17-208).
T2 construct: extracellular domain; also called FcγRIIIa F; FcγRIIIa (F158); not shown: His tag attached to the C terminus
The experiment is described as above. Here is the method: as §1, §2, §3

The target in experiment [3] is T2, FcgRIIIa F extracellular domain with …. The experiment is described as follows: ratio of SPR (Biacore) KDs, FcγRIIb as reference. Here is the method: as §1, §2, §3

T2 sequence (P08637 17-208): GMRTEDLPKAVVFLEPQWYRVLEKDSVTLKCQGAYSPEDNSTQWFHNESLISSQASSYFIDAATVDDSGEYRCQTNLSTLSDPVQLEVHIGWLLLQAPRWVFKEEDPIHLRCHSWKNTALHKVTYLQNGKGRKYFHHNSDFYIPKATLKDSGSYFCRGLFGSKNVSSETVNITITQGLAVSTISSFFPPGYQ

B1: GpH7-A57/GpH7-B78/GpL16-k0 (antibody, human IgG1, kappa)
heavy 1: QVQLVQSGAEVKKPGASVTVSCKASGYTFTDYEMHWIRQPPGEGLEWIGAIDPKTGDTAYSESFQDRVTLTADKSTSTAYMELSSLTSEDTAVYYCTRFYSYTYWGQGTLVTVSSASTKGPSVFPLAPSSKSTSGGTAALGCLVKDYFPEPVTVSWNSGALTSGVHTFPAVLQSSGLYSLSSVVTVPSSSLGTQTYICNVNHKPSNTKVDKKVEPKSCDKTHTCPPCPAPELLGGPDVFLFPPKPKDTLMISRTPEVTCVVVDVSHEDPEVKFNWYVDGVEVHNAKTKPREEQYNSTYRVVSVLTVLHQDWLNGKEYKCKVSNKALPLPEEKTISKAKGQPREPQVYTLPPSRKELTKNQVSLTCLVKGFYPSDIAVEWESNGQPENNYKTTPPVLDSDGSFFLYSKLTVDKSRWQQGNVFSCSVMHEALHNRYTQKSLSLSP
heavy 2: QVQLVQSGAEVKKPGASVTVSCKASGYTFTDYEMHWIRQPPGEGLEWIGAIDPKTGDTAYSESFQDRVTLTADKSTSTAYMELSSLTSEDTAVYYCTRFYSYTYWGQGTLVTVSSASTKGPSVFPLAPSSKSTSGGTAALGCLVKDYFPEPVTVSWNSGALTSGVHTFPAVLQSSGLYSLSSVVTVPSSSLGTQTYICNVNHKPSNTKVDKKVEPKSCDKTHTCPPCPAPELLGGPDVFLFPPKPKDTLMISRTPEVTCVVVDVSHEDPEVKFNWYVDGVEVHNAKTKPREEQYNSTYRVVSVLTVLHQDWLNGKEYKCKVSNKALPLPEEKTISKAKGQPREPQVYTLPPSRDELTKNQVSLTCLVKGFYPSDIAVEWESNGQPENNYKTTPPVLDSDGSFFLYSKLTVDKSRWQQGNVFSCSVMHEALHNHYTQESLSLSP
light: DIVMTQSPLSLPVTPGEPASISCQASESLVHSNRNTYLHWYLQKPGQSPQLLIYKVSNRFSGVPDRFSGSGSGTDFTLKISRVEAEDVGVYYCSQNTHVPPTFGQGTKVEIERTVAAPSVFIFPPSDEQLKSGTASVVCLLNNFYPREAKVQWKVDNALQSGNSQESVTEQDSKDSTYSLSSTLTLSKADYEKHKVYACEVTHQGLSSPVTKSFNRGEC
notes: S239D/A330L/I332E in both H chains (called homodimerized); also called A57/B78
For B1, the Kd in experiment [1] is 610 nM; in experiment [2], 6.2 nM. In addition, the “FcγRIIIa F/FcγRIIb ratio (KD for FcγRIIb / KD for FcγRIIIa F)” value in experiment [3] was found to be 100.

B2: GpH7-TA7/GpH7-B78/GpL16-k0 (antibody, human IgG1, kappa)
heavy 1: QVQLVQSGAEVKKPGASVTVSCKASGYTFTDYEMHWIRQPPGEGLEWIGAIDPKTGDTAYSESFQDRVTLTADKSTSTAYMELSSLTSEDTAVYYCTRFYSYTYWGQGTLVTVSSASTKGPSVFPLAPSSKSTSGGTAALGCLVKDYFPEPVTVSWNSGALTSGVHTFPAVLQSSGLYSLSSVVTVPSSSLGTQTYICNVNHKPSNTKVDKKVEPKSCDKTHTCPPCPAPEYLWGPSVFLFPPKPKDTLMISRTPEVTCVVVDVSHEDPEVKFNWYVDGVEVHNAKTKPREEQYNATYRVVSVLTVLHQDWLNGKEYKCKVSNKALPAPIEKTISKAKGQPREPQVYTLPPSRKELTKNQVSLTCLVKGFYPSDIAVEWESNGQPENNYKTTPPVLDSDGSFFLYSKLTVDKSRWQQGNVFSCSVMHEALHNRYTQKSLSLSP
heavy 2: QVQLVQSGAEVKKPGASVTVSCKASGYTFTDYEMHWIRQPPGEGLEWIGAIDPKTGDTAYSESFQDRVTLTADKSTSTAYMELSSLTSEDTAVYYCTRFYSYTYWGQGTLVTVSSASTKGPSVFPLAPSSKSTSGGTAALGCLVKDYFPEPVTVSWNSGALTSGVHTFPAVLQSSGLYSLSSVVTVPSSSLGTQTYICNVNHKPSNTKVDKKVEPKSCDKTHTCPPCPAPELLGGPDVFLFPPKPKDTLMISRTPEVTCVVVDVSHEDPEVKFNWYVDGVEVHNAKTKPREEQYNSTYRVVSVLTVLHQDWLNGKEYKCKVSNKALPLPEEKTISKAKGQPREPQVYTLPPSRDELTKNQVSLTCLVKGFYPSDIAVEWESNGQPENNYKTTPPVLDSDGSFFLYSKLTVDKSRWQQGNVFSCSVMHEALHNHYTQESLSLSP
light: DIVMTQSPLSLPVTPGEPASISCQASESLVHSNRNTYLHWYLQKPGQSPQLLIYKVSNRFSGVPDRFSGSGSGTDFTLKISRVEAEDVGVYYCSQNTHVPPTFGQGTKVEIERTVAAPSVFIFPPSDEQLKSGTASVVCLLNNFYPREAKVQWKVDNALQSGNSQESVTEQDSKDSTYSLSSTLTLSKADYEKHKVYACEVTHQGLSSPVTKSFNRGEC
notes: L234Y/G236W/S298A in one H chain, S239D/A330L/I332E in the other; also called TA7/B78
B2: the Kd in experiment [1] came to 1100 nM; in experiment [2], 4.7 nM. Besides, the “FcγRIIIa F/FcγRIIb ratio (KD for FcγRIIb / KD for FcγRIIIa F)” value in experiment [3] worked out at 244.

B3: GpH7-TA7/GpH7-TA45/GpL16-k0 (antibody, human IgG1, kappa)
heavy 1: QVQLVQSGAEVKKPGASVTVSCKASGYTFTDYEMHWIRQPPGEGLEWIGAIDPKTGDTAYSESFQDRVTLTADKSTSTAYMELSSLTSEDTAVYYCTRFYSYTYWGQGTLVTVSSASTKGPSVFPLAPSSKSTSGGTAALGCLVKDYFPEPVTVSWNSGALTSGVHTFPAVLQSSGLYSLSSVVTVPSSSLGTQTYICNVNHKPSNTKVDKKVEPKSCDKTHTCPPCPAPEYLWGPSVFLFPPKPKDTLMISRTPEVTCVVVDVSHEDPEVKFNWYVDGVEVHNAKTKPREEQYNATYRVVSVLTVLHQDWLNGKEYKCKVSNKALPAPIEKTISKAKGQPREPQVYTLPPSRKELTKNQVSLTCLVKGFYPSDIAVEWESNGQPENNYKTTPPVLDSDGSFFLYSKLTVDKSRWQQGNVFSCSVMHEALHNRYTQKSLSLSP
heavy 2: QVQLVQSGAEVKKPGASVTVSCKASGYTFTDYEMHWIRQPPGEGLEWIGAIDPKTGDTAYSESFQDRVTLTADKSTSTAYMELSSLTSEDTAVYYCTRFYSYTYWGQGTLVTVSSASTKGPSVFPLAPSSKSTSGGTAALGCLVKDYFPEPVTVSWNSGALTSGVHTFPAVLQSSGLYSLSSVVTVPSSSLGTQTYICNVNHKPSNTKVDKKVEPKSCDKTHTCPPCPAPEYLWGPSVFLFPPKPKDTLMISRTPEVTCVVVDVSHEDPEVKFNWYVDGVEVHNAKTKPREEQYNATYRVVSVLTVLHQDWLNGKEYKCKVSNKALPAPIEKTISKAKGQPREPQVYTLPPSRDELTKNQVSLTCLVKGFYPSDIAVEWESNGQPENNYKTTPPVLDSDGSFFLYSKLTVDKSRWQQGNVFSCSVMHEALHNHYTQESLSLSP
light: DIVMTQSPLSLPVTPGEPASISCQASESLVHSNRNTYLHWYLQKPGQSPQLLIYKVSNRFSGVPDRFSGSGSGTDFTLKISRVEAEDVGVYYCSQNTHVPPTFGQGTKVEIERTVAAPSVFIFPPSDEQLKSGTASVVCLLNNFYPREAKVQWKVDNALQSGNSQESVTEQDSKDSTYSLSSTLTLSKADYEKHKVYACEVTHQGLSSPVTKSFNRGEC
notes: L234Y/G236W/S298A in both H chains (called homodimerized); also called TA7/TA45
Turning to B3, the Kd amounted to 18000 nM in experiment [1] and 3300 nM in experiment [2]. Moreover, the “FcγRIIIa F/FcγRIIb ratio (KD for FcγRIIb / KD for FcγRIIIa F)” value in experiment [3] is 5.3.

B4: GpH7-TA7/GpH7-B3/GpL16-k0 (antibody, human IgG1, kappa)
heavy 1: QVQLVQSGAEVKKPGASVTVSCKASGYTFTDYEMHWIRQPPGEGLEWIGAIDPKTGDTAYSESFQDRVTLTADKSTSTAYMELSSLTSEDTAVYYCTRFYSYTYWGQGTLVTVSSASTKGPSVFPLAPSSKSTSGGTAALGCLVKDYFPEPVTVSWNSGALTSGVHTFPAVLQSSGLYSLSSVVTVPSSSLGTQTYICNVNHKPSNTKVDKKVEPKSCDKTHTCPPCPAPEYLWGPSVFLFPPKPKDTLMISRTPEVTCVVVDVSHEDPEVKFNWYVDGVEVHNAKTKPREEQYNATYRVVSVLTVLHQDWLNGKEYKCKVSNKALPAPIEKTISKAKGQPREPQVYTLPPSRKELTKNQVSLTCLVKGFYPSDIAVEWESNGQPENNYKTTPPVLDSDGSFFLYSKLTVDKSRWQQGNVFSCSVMHEALHNRYTQKSLSLSP
heavy 2: not shown
light: DIVMTQSPLSLPVTPGEPASISCQASESLVHSNRNTYLHWYLQKPGQSPQLLIYKVSNRFSGVPDRFSGSGSGTDFTLKISRVEAEDVGVYYCSQNTHVPPTFGQGTKVEIERTVAAPSVFIFPPSDEQLKSGTASVVCLLNNFYPREAKVQWKVDNALQSGNSQESVTEQDSKDSTYSLSSTLTLSKADYEKHKVYACEVTHQGLSSPVTKSFNRGEC
notes: L234Y/G236W/S298A in one H chain only; also called TA7/B3
Regarding B4, the equilibrium dissociation constant (Kd) in experiment [1] is 4500 nM; in experiment [2] it was 320 nM. Besides, the “FcγRIIIa F/FcγRIIb ratio (KD for FcγRIIb / KD for FcγRIIIa F)” value in experiment [3] was 14.
